In the DeepSol protein solubility set:

Assay: soluble on expression in E. coli; label from the status in PepcDB or PDB records

| Sequence | soluble on expression in E. coli |
| --- | --- |
| MGSDKIHHHHHHSFSLPGYLFGRCPDYSITYDKNDAQEQKDVYICDGNKSVVRIDSYKWNSSSSDWVYDGKTVMENDNQGRTLVAISYSAADVAGEKTEYTYTGNGYEKFSVTSSSFEGGAWKAEAKVDIEATFNKDKYPVSILMTGTAEGETFKMKMEWSYDKNVTKTSSSIDFGGSWMLMSESKTEIVDAGNPMISKNYQKMYFPAETSWEYSGKTHDYFNGTTSIAPVVEENELKLHIYGDVLEVQGTESGISIYAITGGKMAESKSNRIDISRLPAGIYLLNTARGSIKFIHK | not soluble |
| MGSDKIHHHHHHSNINPSNGEGRDPLENFNRAMWKINYEVIDPHIFKPVAKGWRDYVPAPIKRSLVNIANNLDEPASFVNRLIEGDGQKAMRHFTRFWINSTFGLAGLIDWASQIKELKLENGNREFGDTLGHYGVPAGSYIMAPGYGPITPRQAVGKVVDSVYPMLSMLATPWMLTKFFVQSIDTRAQFINQEALLTNSADPYISFREAYFQNLRFKVKDGDVSDIQEQLSQEELDQID | not soluble |
| MGSDKIHHHHHHSSDYFTTNPEVLEAIGGKVPVTINGKFPEKYFKKNATVEVTPVLRWKGGEAKGQPAVFQGEKVEGNNQTIAYKAGGSYTMKASFDYVPEMANSELYLDFKITKGKKSYTIPSVKIADGVIATSELPTAASSNASYANDAFQRIIKDAQTANIMFLIQQANLRNSELNSDDIKEFHKKVAEINADTKNYKLNNIEISAYASPDGGVELNTGLAENREANTEKYMERQLKKGKIDTNLDAKYTAQDWEGFQELVSKSNLQDKDLILRVLSMYNDPEQREAEIKNISSVYKTLADEILPQLRRARLTANYDIIGRSDDEINEAFNSDPKVLSVEELLYAATLTNDNARKEAIFTKTTQLYPNDFRAYNNLGELAFAAGDAAKAESYFKQAASKNANAPEVNANLGLCELVKGNVAAAETYLGKATGANAAGEALGNLYIKQGQYDRAVNSFGDAKTNSAAQAQILAKDYNKAKATLSAIKNPDAMTDYLMAIVGARTNNASLVSSSIKSAIAKDPSMAEKAANDREFAKYADAIK | not soluble |
| MGSDKIHHHHHHTACETDNDSNPILNEPDTFTLNTPAYAANNVYDLKNAQTVELTCSQPDYGFPAATTYTVQASFEQDFIEATDESKANYTVLESTSPTAKINVDASELNNALLDLWTAVNGEQAELPTEPVAVYIRLKANITSSGKGVCFSNVIELPNVLISKSTSSLTPPKTMFIVGSMLDTDWKVWKPMAGVYGMDGQFYSMIYFDANSEFKFGTKENEYIGINDNRVTVTDKAGAGVSGSDNFVVENAGWYLFYVKAAVKGDDYQFTITFYPAEVYLFGNTTGGSWAFNDEWKFTVPATKDGNFVSPAMTASGEVRMCFKTDLDWWRTEFTLHDGEIFYRDFNLIDSWTEKGDGYSIQGSAGNVIHLNFTAGTGEKK | not soluble |
| MGSDKIHHHHHHTVDNRHDPLESMNRAVFSFNEKLDEVVLEPVARGYQRFIPSPVRMIVGNFFSNLDDVVVAANSLLQLKFMDAMASTTRIVINTTFGMLGAIDLASDISQVSDIDISKRNEDFGQTLGFYGIGSGPYLVLPILGPSTVRDTVGIGVDSTIFHPARAIYTSFDLLTVRLPVTTVEFIDRREQLLDLDKTLEEASLDKYEFVRDAYLQRRESLIKNDGAASEEEPVNFDEEEIIIDD | not soluble |
| MGSDKIHHHHHHVERIETHDATPGVVVEALTRGPGAICIRGLFSESQIAEARRVVMAHSEDRAQTVTHFQGQAAEEQRLHLQRRVWNLLAKGGVFSEMSEQPVIVGAMRRFLGDDFIMGSIAANRILPGGPGQEPHIDYPYWDYHMPDTFPLGINTSFALNAQVTIPLDPFTAETGATAFVPHTQHELRYPAEGDRFFERCQRMTAEPGDAIVFFGATWHCAMPNRSTQDRSAVLIQYLPKFVKPMEDLRAMVGEDFVRRASPTMRQLLGLNFPYPQNLDEIAVATNAEGRKNAMR | not soluble |
| MGSDKIHHHHHHVGAGGRDVVWTPRSLYLTDFIHANLLEKLKMQTLIIYSTIDGQTLAICQKIKLFAEQAGENVSLVTLEQAEALSLADFDKVLIGASIRYGKYRPELYQFVNRHHAVLDTKINGFFSVNVVARKPLKNTPETNPYMQKFLKLSLWQPQHLAVFAGKIDYPKYSFFDRTMIRFIMWMTKGPTDINGTFEFTDWAKVDAFGTDFSHQ | not soluble |
| MGSDKIHHHHHHVILKAKVYHKVFAFKDLKEVLAKANEEKSGDVLAGIGATSASERVAAKLVLSNLTLEDLYNHPVLPYEEDEVTRVIYDGLNLRIYQEMKGWTVGQLREYILDHGTTGSHLNHISRGLTSEMIAAVAKLMSNMDLVYGSKKMRHQAHCNTTIGIPGTLAFRCQPNHPTDSVEGVMASLKEGLSYGSGDAVIGINPVEDNVDTLSRLLETVKEFMQQWEIPTQNCVLAHITTQMKAITKGVPIDLVFQSIAGTQKANEAFGISKELIDEAFALIQRNGTATGPNLMYFETGQGSEISLAAHHGVDMMTLESRTYGFGRHYRPFLLNNVSGFIGPETIYSGREVIRADLEDLFMGKLHGLPMGIAPCYTNHMKADQNDQEIATLLCAMAGANYFMGLPGGDDVMLSYQDTSYHDDAATREILGLRPLPEFEKWLEKMGIMENGQLTERAGDPSVFDK | not soluble |
| MGSDKIHHHHHHVKKQVPDKTELGRTRVLVVGDVMLDRYWFGAVERISPEAPVPVVRVTREEERLGGAANVALNVKSLGARATLLTVVGDDEPAHTLKRLLERDGIDTLLGSDPQLYTIVKLRVIGRSQQLIRIDFENQPDHEVLAEMLQDYETTLAEQDAVLFSDYGKGGLEHIPRMIELARRSGKPVLVDPKGSDYRRYAGASVITPNRAELAQVVGAWSSEAQLRERAQALRVELGLEALLLTRSEEGMTLFDARGDTSVPAQAREVFDVTGAGDTVIATMAAMIACGLSPREAMPLANRAGSIVVGKFGTASVSYDELFE | not soluble |
| MGSDKIHHHHHHVLPHQNLSILIFFFTLDKDHFGNEMKNMYSHIIVGAGILGTSTAYHLAKQGANVLLVDRKEAGRATHVAAGIICPWMTQRRNKAWYRLANNGAHYYDKLIPELEALGETTTGYQKVGTIALHETSKIEKMQMIAENRFPEAPAIQRIERLTADQVRSMFPLIEFVEDALFVSGGARVDGRALRAAMERGAIKHAATILEADASLVVVDGHVQGVQIGQDIHYADQVILTAGVWVNELLEPLQTKLDIRAEKGQILHLDISNDQSKEWPVIMGQRGLYLVSIEDGKLALGSTHEKQLDYNLQPTVKGMYALLTRAIPVAPALEEANINEMRVGLRPYTSNSLPVIGRLANHPNVLIANGLGASGLTIGPYLGQELAKLALDQELEIDLNDYLLQ | not soluble |
| MGSDKIHHHHHHVPSACRLSTCRFQDVCLSQIAAYWPARFTRTSEGVGKMAEMVTIKEADLIESVADALQYISYFHPMDYIRALGEAYKAEQGPAAKDAIAQILTNSRMCAEGHRPICQDTGIVNVFIEWGQDCRLESDLSLQDVVDEGVRRAYNNPDNKLRASVLADPAFTRRNTRDNTPCVLHVEMVKGNKVTVDVAAKGGGSENKSKFKMMNPSDSIVDWVIEMLPQMGAGWCPPGMLGIGIGGTAEHCVLLAKKALMEPIDMAQLKQRGPQTDIERLRIEIFDKVNALGIGAQGLGGLSTILDVKIMDAPCHAAGKPVAMIPNCAATRHAHFTLDGSGPTFLERPKLDEWPEVHWAPDSAARRVDLDTLTQEEVQSWKAGDRLLLNGKMLTGRDAAHKRIKDMLAKGEELPVDFKGRVIYYVGPVDPVRDEVVGPAGPTTATRMDSFSDTMLDLGLLASVGKAERGPAATQSIANHKSAYLMAVGGAAYLVARAIKEAKVVGFEDLGMEAIYEFTVEDMPVTVAVDSGGQNVHQLAPLVWKKKIAEEHLLPA | not soluble |
| MGSDKIHHHHHHVQLSENVLLLGNRHFNYFLVGKKEAAIIECGVSGGVYSFQKQWEKLPQKPEVKYLVAMHAHFDHVCGIPALQKMFPAAVLLASSPAEAVLKKAKIMENFFAQDEKMLDLLADEGIIPRGLQSPNVTEIALDKLIAEGDEIKLGGDLNIKVLDAPGHSPCSLACYLPAEQVMFISDACGFQISDEDIFPVFFQAYDIYLETIKRLMSYPSKLLAIPHERIWTGRNIDAFYRRALSSAEQAFNIIRDLLDQGWEDEKIEKELFARYYKGSLKIYTPENIQQCVQILLRRVKEKL | not soluble |
| MGSDKIHHHHHHVTILSPKAVPAPAASDAYGFGDRLTADFPSQINVDVTEVCNLACVHCPHPQFKKSVHYAGRMLDPALNDKMVEEVRDHGQGRVGYIRYTAAGEPMAHPAIFPMLAKAVARSGTTVSLTTNGMLLDEGRRARLLETGIHLIDISIDAFLPETYARVRVGGDLERVRGGVLRLMEGAARRVDPPKIVVSFVEQPFNQGETADFERFWKENGAAYVVIRRLHSCAGAAQDLAATLRVEQGETRRPCLYPWERIVLNPSGQLSFCPADWAHGAAIAEYRDTTIREVWQGPFYRALREAHLTNSYANHGFCGQCPDWASTRWPKQGRSYADMVQDFKETE | not soluble |
| MGSDKIHHHHHHVTVSAFVLLLCRRAIVTLDSTPAFSTDPELICFSSRFQDEMEMYAPAEVVAHYLDRHEEWFRRCAEPMATTSIGKDAYAIVLGRYGSLGFEVEPQIGLELLPADQGVYRICTVPVPGYESQGYQVDFQASLSLDRLTHETEAPVTEATAVAWDLLLTVGIRLPRFIHVLPQKLVHSTGDHLLRQIVRQTSRRLTHRVQEDFHQQLNLPLPPRRHARF | not soluble |
| MGSDKIHHHHHHVTYGDNVKPINDALLTEFPKEKRYLVYDKKFVKNPEAWSAEYALPYRRLRFIRLAYLLATSKHLFIDNYIGEYSVAPIRQGTKRIQLWHAAGTLKKFGLTSSRSLMVPKHVLRRFKRVYQRYGDFIVPGEACAKQFMAPHDLHRTVFKTLGVPRTDYWFNEQHQTVKKQLSDIYVKPKRRILLYAPTYREYNGMEGQTVRQLEQLTDQGWTILVKLHPTVRSMFTHQKAHVHFVTDEYSINDYLLITDVLVTDYSSIPFESCLLGVPTVLYTPDIDTYRQIPGIIDSYPDPLPVTCTDQFEIMLNWINSDVSLQESRMAMEQFKTIWYTEQPGQATRRIVDHYYRKVR | not soluble |
| MGSDKIHHHHHHYLPDDEPKKLIVNAMMQTENNDNRIYLHYTGWTATTPVTDGIIHLYINGKLSETITAEDDYYPVKSIFRTGDKVKIEASSENGKYKAKAETRISAPLQIINVDTTYISLRDYNSWVGGKPVYDNYLRLNIQLKQPDIEAENTYYRLEIKQIFYSHKWHDGRDTLSIDTTYNYNYIYDTALTDGKPGHAIDEGFELIQKWNNYFGLFKSCYFKNREYNMTIDLKEDINYIHIDSQKAERYISIRFYSISESEHRYLYAMSSALDFDAENFIYAVPLIPNNIKGGIGIFSIANQVKYKLKEENCQDRY | not soluble |
| MGSEILVGIGEFRVAKGAVLKTIGLGSCVGIALYDPKLRLGGLAHVMLPQSGNGTKRSAKYADHAVEMMTEAMERLGSDRKRIVAKMAGGAQIFKHMTMDMLRIGDRNAEAIRTILRDYGIRIVSEDLGGDEGRTVYFFTNDGRMLVKYSRGGELWI | soluble |
| MGSELLDLSFLSEEEKDLILSVLQRDEEVRKADEKRIRRLKNELLEIKRKGAKRGSQHYSDRTCARCQESLGRLSPKTNTCRGCNHLVCRDCRIQESNGTWRCKVCAKEIEMKKATGDWFYDQKVNRFAYRTGSEIIRMSLRHKPAVSKR | soluble |
| MGSGEPNPAGKKKKYLKAALYVGDLDPDVTEDMLYKKFRPAGPLRFTRICRDPVTRSPLGYGYVNFRFPADAEWALNTMNFDLINGKPFRLMWSQPDDRLRKSGVGNIFIKNLDKSIDNRALFYLFSAFGNILSCKVVCDDNGSKGYAYVHFDSLAAANRAIWHMNGVRLNNRQVYVGRFKFPEERAAEVRTRDRATFTNVFVKNIGDDIDDEKLKELFCEYGPTESVKVIRDASGKSKGFGFVRYETHEAAQKAVLDLHGKSIDGKVLYVGRAQKKIERLAELRRRFERLRLKEKSRPPGVPIYIKNLDETINDEKLKEEFSSFGSISRAKVMMEVGQGKGFGVVCFSSFEEATKAVDEMNGRIVGSKPLHVTLGQARRRC | soluble |
